# Laboratory results from paper PMC10680678.
# Like-named read-outs stand apart in the source and are kept apart here.
# What was measured:
# [1] = target: Human CD44 extracellular domain (human) (UniProt P16070); test: ITC
# [2] = target: Mouse CD44 extracellular domain (mouse) (UniProt P15379); test: ITC
# [3] = target: Biotinylated avi-tagged human TβRI (human) (UniProt P36897); test: SPR
# [4] = target: Biotinylated avi-tagged human TβRII (human) (UniProt P37173); test: SPR
# [5] = target: Biotinylated avi-tagged human TβRI (human) (UniProt P36897); test: SPR; remark: listed apart in the source
# Sequence of UniProt P36897 (P36897 34-126): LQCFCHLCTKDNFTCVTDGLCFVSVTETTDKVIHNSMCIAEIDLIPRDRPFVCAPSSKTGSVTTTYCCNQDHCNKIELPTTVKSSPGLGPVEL
# Sequence of UniProt P15379 (P15379 23-685): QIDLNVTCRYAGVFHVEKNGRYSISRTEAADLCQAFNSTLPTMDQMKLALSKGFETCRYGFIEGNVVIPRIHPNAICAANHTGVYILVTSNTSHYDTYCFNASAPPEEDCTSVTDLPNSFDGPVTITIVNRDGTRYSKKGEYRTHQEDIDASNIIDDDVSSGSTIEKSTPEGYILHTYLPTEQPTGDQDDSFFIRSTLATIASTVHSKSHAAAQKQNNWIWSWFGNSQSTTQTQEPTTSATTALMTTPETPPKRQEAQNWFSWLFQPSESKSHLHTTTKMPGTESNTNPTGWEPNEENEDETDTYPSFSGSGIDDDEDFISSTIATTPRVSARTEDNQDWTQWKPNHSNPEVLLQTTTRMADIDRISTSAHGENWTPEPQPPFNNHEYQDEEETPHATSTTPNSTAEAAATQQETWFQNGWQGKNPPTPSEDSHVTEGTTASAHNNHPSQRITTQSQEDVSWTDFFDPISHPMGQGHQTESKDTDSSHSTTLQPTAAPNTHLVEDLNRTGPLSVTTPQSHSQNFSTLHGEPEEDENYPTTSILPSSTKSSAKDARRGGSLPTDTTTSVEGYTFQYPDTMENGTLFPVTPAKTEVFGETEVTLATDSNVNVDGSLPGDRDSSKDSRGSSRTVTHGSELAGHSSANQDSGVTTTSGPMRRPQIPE
# Sequence of UniProt P16070 (P16070 21-649): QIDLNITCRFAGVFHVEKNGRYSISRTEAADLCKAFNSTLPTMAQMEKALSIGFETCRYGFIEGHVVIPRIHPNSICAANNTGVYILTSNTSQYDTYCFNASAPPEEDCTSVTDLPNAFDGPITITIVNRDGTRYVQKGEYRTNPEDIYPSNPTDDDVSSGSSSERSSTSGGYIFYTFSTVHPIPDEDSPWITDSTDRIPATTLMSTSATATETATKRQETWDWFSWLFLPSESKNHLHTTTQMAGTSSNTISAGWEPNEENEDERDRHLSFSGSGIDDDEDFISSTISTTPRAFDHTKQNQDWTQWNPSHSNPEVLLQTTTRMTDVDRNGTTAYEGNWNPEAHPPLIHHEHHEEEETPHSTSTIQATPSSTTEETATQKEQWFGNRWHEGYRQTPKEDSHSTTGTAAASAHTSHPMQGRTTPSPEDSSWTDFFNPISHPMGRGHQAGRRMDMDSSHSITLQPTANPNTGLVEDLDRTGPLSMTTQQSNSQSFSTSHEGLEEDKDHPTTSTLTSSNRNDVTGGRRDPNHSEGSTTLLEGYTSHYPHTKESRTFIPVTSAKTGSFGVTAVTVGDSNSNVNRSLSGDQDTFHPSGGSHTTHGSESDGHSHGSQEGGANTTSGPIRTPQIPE
# Sequence of UniProt P37173 (P37173 23-166): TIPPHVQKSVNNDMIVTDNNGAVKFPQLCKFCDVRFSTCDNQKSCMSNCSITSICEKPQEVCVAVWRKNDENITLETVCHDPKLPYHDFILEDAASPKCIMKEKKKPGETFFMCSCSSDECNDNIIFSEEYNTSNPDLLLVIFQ
Kd [3] [nM],Kd [4] [µM],Kd [5] [nM],Substance,Kd [1] [nM],Kd [2] [nM]
,,,TGM1 D4-5 fragment (domain or fragment),140,62
70,,,TGM1 full-length recombinant protein (natural protein),,
,,,TGM4 D4-5 recombinant protein (domain or fragment),56,20
3.2,116,3 to 5,TGM4 full-length recombinant protein (natural protein),,
